Experimental data reported in patent US20250163167A1 (SYNTHEKINE, published 2025).
One block for each binder: values may come before it.

Target: T1, human IL-10 receptor (hIL-10R alpha and beta chains) on HEK-Blue IL-10 reporter cells (human, UniProt Q13651 22-578; Q08334 20-325)
T1 sequence 1: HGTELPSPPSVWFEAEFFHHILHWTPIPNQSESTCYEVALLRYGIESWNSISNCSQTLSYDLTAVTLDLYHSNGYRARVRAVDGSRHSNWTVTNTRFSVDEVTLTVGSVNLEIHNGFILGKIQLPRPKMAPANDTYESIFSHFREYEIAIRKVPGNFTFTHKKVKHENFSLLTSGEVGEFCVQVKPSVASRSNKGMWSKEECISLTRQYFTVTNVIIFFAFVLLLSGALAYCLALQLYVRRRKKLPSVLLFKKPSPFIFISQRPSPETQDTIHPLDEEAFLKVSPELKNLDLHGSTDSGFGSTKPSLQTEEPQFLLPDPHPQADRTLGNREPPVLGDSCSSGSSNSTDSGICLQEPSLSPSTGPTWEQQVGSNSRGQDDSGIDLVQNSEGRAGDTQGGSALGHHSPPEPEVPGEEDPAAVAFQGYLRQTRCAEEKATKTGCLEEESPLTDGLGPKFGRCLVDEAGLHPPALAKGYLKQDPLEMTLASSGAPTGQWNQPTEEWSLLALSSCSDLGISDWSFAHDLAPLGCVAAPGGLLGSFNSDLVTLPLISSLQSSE
T1 sequence 2: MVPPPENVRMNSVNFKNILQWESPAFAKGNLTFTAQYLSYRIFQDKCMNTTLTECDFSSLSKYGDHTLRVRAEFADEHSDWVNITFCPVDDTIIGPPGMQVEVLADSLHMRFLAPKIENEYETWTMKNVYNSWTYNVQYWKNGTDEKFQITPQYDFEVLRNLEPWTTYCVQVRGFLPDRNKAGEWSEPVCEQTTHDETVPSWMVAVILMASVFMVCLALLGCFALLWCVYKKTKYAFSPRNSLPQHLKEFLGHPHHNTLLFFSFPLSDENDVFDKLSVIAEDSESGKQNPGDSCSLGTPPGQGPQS
Test: cell-based or functional assay

Abs 630 (25 nM): 0.47 Abs 630
Abs 630 (100 nM): 0.36 Abs 630
B1: IL10R binding molecule of SEQ ID NO: 319 (bispecific antibody)
chain: QVQLQESGGGSVQAGGSLRLSCAASRYTYNSYCMGWFRQAPGKEREGVATIDSDGMTRYADSVKGRFTISKDNAKNTLYLQMNSLKPEDTAMYYCAADADCTIAAMTTNPLGQGTQVTVSSGGGSQVQLQESGGGSVQAGGSLRLSCAASRYLYSIDYMAWFRQSPGKEREPVAVIYTASGATFYPDSVKGRFTISQDNAKMTVYLQMNSLKSEDTAMYYCAAVRKTDSYLFDAQSFTYWGQGTQVTVSSASHHHHHH

Abs 630 (25 nM): 0.46 Abs 630
Abs 630 (100 nM): 0.4 Abs 630
B2: IL10R binding molecule of SEQ ID NO: 321 (bispecific antibody)
chain: QVQLQESGGGSVQAGGSLRLSCAASRYTYNSYCMGWFRQAPGKEREGVATIDSDGMTRYADSVKGRFTISKDNAKNTLYLQMNSLKPEDTAMYYCAADADCTIAAMTTNPLGQGTQVTVSSGGGSQVQLQESGGGSVQAGGSLRLSCAASGYTYSMYCMGWFRQAPGKEREGVAQINSDGSTSYADSVKGRFTISKDNAKNTLYLQMNSLKPEDTAMYYCAADSRVYGGSWYERLCGPYTYEYNYWGQGTQVTVSSASHHHHHH

Abs 630 (25 nM): 0.52 Abs 630
Abs 630 (100 nM): 0.54 Abs 630
B3: IL10R binding molecule of SEQ ID NO: 327 (bispecific antibody)
chain: QVQLQESGGGSVQAGGSLRLSCTVSRYTASVNYMGWFRQAPGKEREGVATIFTGAGTTYYANSVKGRFTISRDNAKNTAYLQMNSLKPEDTAIYYCAVDFRGGLLYRPAYEYTYRGQGTQVTVSSGGGSQVQLQESGGGSVQAGGSLRLSCAASRFTYSSYCMGWFRQAPGKEREGVASIDSDGSTSYTDSVKGRFTISKDNAKNTLYLQMNSLKPEDTAMYYCALDLMSTVVPGFCGFLLSAGMDYWGKGTQVTVSSASHHHHHH

Abs 630 (25 nM): 0.5 Abs 630
Abs 630 (100 nM): 0.45 Abs 630
B4: IL10R binding molecule of SEQ ID NO: 318 (bispecific antibody)
chain: QVQLQESGGGSVQAGGSLRLSCAASGYTYSSYCMGWFRQAPGKEREGVAHIDSDGSTSYADSVKGRFTISKDNAKNTLYLQMNSLKPEDTAMYYCAADPIPGPGYCDGGPNKYWGQGTQVTVSSGGGSQVQLQESGGGSVQAGGSLRLSCAASGYSNCSYDMTWYRQAPGKEREFVSAIHSDGSTRYADSVKGRFFISQDNAKNTVYLQMNSLKPEDTAMYYCKTDPLHCRAHGGSWYSVRANYWGQGTQVTVSSASHHHHHH

Abs 630 (25 nM): 0.47 Abs 630
Abs 630 (100 nM): 0.56 Abs 630
B5: IL10R binding molecule of SEQ ID NO: 326 (bispecific antibody)
chain: QVQLQESGGGSVQAGGSLRLSCTVSRYTASVNYMGWFRQAPGKEREGVATIFTGAGTTYYANSVKGRFTISRDNAKNTAYLQMNSLKPEDTAIYYCAVDFRGGLLYRPAYEYTYRGQGTQVTVSSGGGSQVQLQESGGGSVQAGGSLRLSCAASRYLYSIDYMAWFRQSPGKEREPVAVIYTASGATFYPDSVKGRFTISQDNAKMTVYLQMNSLKSEDTAMYYCAAVRKTDSYLFDAQSFTYWGQGTQVTVSSASHHHHHH

Abs 630 (25 nM): 0.49 Abs 630
Abs 630 (100 nM): 0.42 Abs 630
B6: IL10R binding molecule of SEQ ID NO: 314 (bispecific antibody)
chain: QVQLQESGGGSVQAGGSLRLSCAASGYTYSSYCMGWFRQAPGKEREGVAHIDSDGSTSYADSVKGRFTISKDNAKNTLYLQMNSLKPEDTAMYYCAADPIPGPGYCDGGPNKYWGQGTQVTVSSGGGSQVQLQESGGGSVQAGGSLRLSCAASGYTYSMYCMGWFRQAPGKEREGVAQINSDGSTSYADSVKGRFTISKDNAKNTLYLQMNSLKPEDTAMYYCAADSRVYGGSWYERLCGPYTYEYNYWGQGTQVTVSSASHHHHHH

Abs 630 (25 nM): 0.61 Abs 630
Abs 630 (100 nM): 0.44 Abs 630
B7: IL10R binding molecule of SEQ ID NO: 324 (bispecific antibody)
chain: QVQLQESGGGSVQAGGSLRLSCAASRYTYNSYCMGWFRQAPGKEREGVATIDSDGMTRYADSVKGRFTISKDNAKNTLYLQMNSLKPEDTAMYYCAADADCTIAAMTTNPLGQGTQVTVSSGGGSQVQLQESGGGSVQAGGSLRLSCGASGYTYSSYCMGWFRQVPGKEREGVAVIDSDGSTSYADSVKGRFTISKDNGKNTLYLQMNSLKPEDTAMYYCAADLGHYRPPCGVLYLGMDYWGKGTQVTVSSASHHHHHH

Abs 630 (25 nM): 0.51 Abs 630
Abs 630 (100 nM): 0.41 Abs 630
B8: IL10R binding molecule of SEQ ID NO: 315 (bispecific antibody)
chain: QVQLQESGGGSVQAGGSLRLSCAASGYTYSSYCMGWFRQAPGKEREGVAHIDSDGSTSYADSVKGRFTISKDNAKNTLYLQMNSLKPEDTAMYYCAADPIPGPGYCDGGPNKYWGQGTQVTVSSGGGSQVQLQESGGGSVQAGGSLRLSCAVSGYAYSTYCMGWFRQAPGKEREGVAAIDSGGSTSYADSVKGRFTISKDNAKNTLYLRMNSLKPEDTAMYYCAAVPPPPDGGSCLFLGPEIKVSKADFRYWGQGTQVTVSSASHHHHHH

Abs 630 (25 nM): 0.45 Abs 630
Abs 630 (100 nM): 0.38 Abs 630
B9: IL10R binding molecule of SEQ ID NO: 317 (bispecific antibody)
chain: QVQLQESGGGSVQAGGSLRLSCAASGYTYSSYCMGWFRQAPGKEREGVAHIDSDGSTSYADSVKGRFTISKDNAKNTLYLQMNSLKPEDTAMYYCAADPIPGPGYCDGGPNKYWGQGTQVTVSSGGGSQVQLQESGGGSVQAGGSLRLSCGASGYTYSSYCMGWFRQVPGKEREGVAVIDSDGSTSYADSVKGRFTISKDNGKNTLYLQMNSLKPEDTAMYYCAADLGHYRPPCGVLYLGMDYWGKGTQVTVSSASHHHHHH

Abs 630 (25 nM): 0.46 Abs 630
Abs 630 (100 nM): 0.41 Abs 630
B10: IL10R binding molecule of SEQ ID NO: 322 (bispecific antibody)
chain: QVQLQESGGGSVQAGGSLRLSCAASRYTYNSYCMGWFRQAPGKEREGVATIDSDGMTRYADSVKGRFTISKDNAKNTLYLQMNSLKPEDTAMYYCAADADCTIAAMTTNPLGQGTQVTVSSGGGSQVQLQESGGGSVQAGGSLRLSCAVSGYAYSTYCMGWFRQAPGKEREGVAAIDSGGSTSYADSVKGRFTISKDNAKNTLYLRMNSLKPEDTAMYYCAAVPPPPDGGSCLFLGPEIKVSKADFRYWGQGTQVTVSSASHHHHHH

Abs 630 (25 nM): 0.49 Abs 630
Abs 630 (100 nM): 0.42 Abs 630
B11: IL10R binding molecule of SEQ ID NO: 325 (bispecific antibody)
chain: QVQLQESGGGSVQAGGSLRLSCAASRYTYNSYCMGWFRQAPGKEREGVATIDSDGMTRYADSVKGRFTISKDNAKNTLYLQMNSLKPEDTAMYYCAADADCTIAAMTTNPLGQGTQVTVSSGGGSQVQLQESGGGSVQAGGSLRLSCAASGYSNCSYDMTWYRQAPGKEREFVSAIHSDGSTRYADSVKGRFFISQDNAKNTVYLQMNSLKPEDTAMYYCKTDPLHCRAHGGSWYSVRANYWGQGTQVTVSSASHHHHHH

Abs 630 (25 nM): 0.54 Abs 630
Abs 630 (100 nM): 0.41 Abs 630
B12: IL10R binding molecule of SEQ ID NO: 320 (bispecific antibody)
chain: QVQLQESGGGSVQAGGSLRLSCAASRYTYNSYCMGWFRQAPGKEREGVATIDSDGMTRYADSVKGRFTISKDNAKNTLYLQMNSLKPEDTAMYYCAADADCTIAAMTTNPLGQGTQVTVSSGGGSQVQLQESGGGSVQAGGSLRLSCAASRFTYSSYCMGWFRQAPGKEREGVASIDSDGSTSYTDSVKGRFTISKDNAKNTLYLQMNSLKPEDTAMYYCALDLMSTVVPGFCGFLLSAGMDYWGKGTQVTVSSASHHHHHH

Abs 630 (25 nM): 0.64 Abs 630
Abs 630 (100 nM): 0.38 Abs 630
B13: IL10R binding molecule of SEQ ID NO: 323 (bispecific antibody)
chain: QVQLQESGGGSVQAGGSLRLSCAASRYTYNSYCMGWFRQAPGKEREGVATIDSDGMTRYADSVKGRFTISKDNAKNTLYLQMNSLKPEDTAMYYCAADADCTIAAMTTNPLGQGTQVTVSSGGGSQVQLQESGGGSVQAGGSLRLSCTVSGYTYSSNCMGWFRQAPGKEREGVATIYTGGGNTYYADSVKGRFTISQDNAKNTVYLQMNNLKPEDTAMYYCAAEPLSRVYGGSCPTPTFDYWGQGTQVTVSSASHHHHHH

Abs 630 (25 nM): 0.44 Abs 630
Abs 630 (100 nM): 0.34 Abs 630
B14: IL10R binding molecule of SEQ ID NO: 328 (bispecific antibody)
chain: QVQLQESGGGSVQAGGSLRLSCTVSRYTASVNYMGWFRQAPGKEREGVATIFTGAGTTYYANSVKGRFTISRDNAKNTAYLQMNSLKPEDTAIYYCAVDFRGGLLYRPAYEYTYRGQGTQVTVSSGGGSQVQLQESGGGSVQAGGSLRLSCAASGYTYSMYCMGWFRQAPGKEREGVAQINSDGSTSYADSVKGRFTISKDNAKNTLYLQMNSLKPEDTAMYYCAADSRVYGGSWYERLCGPYTYEYNYWGQGTQVTVSSASHHHHHH

Abs 630 (25 nM): 0.44 Abs 630
Abs 630 (100 nM): 0.34 Abs 630
B15: IL10R binding molecule of SEQ ID NO: 261 (bispecific antibody)
chain: QVQLQESGGGSVQAGGSLRLSCAASRYLYSIDYMAWFRQSPGKEREPVAVIYTASGATFYPDSVKGRFTISQDNAKMTVYLQMNSLKSEDTAMYYCAAVRKTDSYLFDAQSFTYWGQGTQVTVSSGGGSQVQLQESGGGSVQAGGSLRLSCAASGYSYSSYCMGWFRQAPGKEREGVATIDSDGMTRYADSVKGRFTISKDNAKNTLYLQMNSLKPEDTAMYYCAAPLYDCDSGAVGRNPPYWGQGTQVTVSSASHHHHHH

Abs 630 (25 nM): 0.48 Abs 630
Abs 630 (100 nM): 0.39 Abs 630
B16: IL10R binding molecule of SEQ ID NO: 316 (bispecific antibody)
chain: QVQLQESGGGSVQAGGSLRLSCAASGYTYSSYCMGWFRQAPGKEREGVAHIDSDGSTSYADSVKGRFTISKDNAKNTLYLQMNSLKPEDTAMYYCAADPIPGPGYCDGGPNKYWGQGTQVTVSSGGGSQVQLQESGGGSVQAGGSLRLSCTVSGYTYSSNCMGWFRQAPGKEREGVATIYTGGGNTYYADSVKGRFTISQDNAKNTVYLQMNNLKPEDTAMYYCAAEPLSRVYGGSCPTPTFDYWGQGTQVTVSSASHHHHHH
